Target: recombinant Q586B2 protein (Trypanosoma brucei brucei)
Test: SEC; size exclusion chromatography after IMAC; uniform peak of approximately 55 kDa

recombinant Q586B2 protein (natural protein)
stoichiometry N: 4
